Laboratory results as given in US20150056222A1 (Regeneron, published 2015).
Substitutions are numbered along the chain they refer to. Names may count otherwise.

T1: human prolactin receptor (PRLR) on cells (human, UniProt P16471 25-622)
T1 construct: T47D, T47D#11 and MCF7 carry the endogenous receptor; also called hPRLR; HEK293/hPRLR
T1 sequence: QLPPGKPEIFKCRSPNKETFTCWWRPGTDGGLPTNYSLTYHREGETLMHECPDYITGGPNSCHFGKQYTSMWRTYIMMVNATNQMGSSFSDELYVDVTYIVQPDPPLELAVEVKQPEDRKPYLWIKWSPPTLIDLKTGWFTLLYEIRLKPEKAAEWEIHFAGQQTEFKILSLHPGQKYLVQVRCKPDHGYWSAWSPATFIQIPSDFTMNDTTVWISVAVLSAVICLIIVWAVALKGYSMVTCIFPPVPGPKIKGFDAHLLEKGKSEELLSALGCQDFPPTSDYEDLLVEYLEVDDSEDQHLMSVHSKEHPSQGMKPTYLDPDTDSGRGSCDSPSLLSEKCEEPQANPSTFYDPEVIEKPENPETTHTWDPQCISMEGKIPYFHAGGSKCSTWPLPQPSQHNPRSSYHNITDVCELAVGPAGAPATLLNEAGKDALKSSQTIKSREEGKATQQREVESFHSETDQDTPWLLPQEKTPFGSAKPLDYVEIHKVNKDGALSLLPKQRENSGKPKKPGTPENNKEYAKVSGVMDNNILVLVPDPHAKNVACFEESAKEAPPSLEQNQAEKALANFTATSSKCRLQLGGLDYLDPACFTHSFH

T2: monkey (macaca fascicularis) PRLR on HEK293 cells (macaca fascicularis, UniProt A0A2K5WXK1 25-619)
T2 construct: also called mfPRLR; HEK293/mfPRLR
T2 sequence: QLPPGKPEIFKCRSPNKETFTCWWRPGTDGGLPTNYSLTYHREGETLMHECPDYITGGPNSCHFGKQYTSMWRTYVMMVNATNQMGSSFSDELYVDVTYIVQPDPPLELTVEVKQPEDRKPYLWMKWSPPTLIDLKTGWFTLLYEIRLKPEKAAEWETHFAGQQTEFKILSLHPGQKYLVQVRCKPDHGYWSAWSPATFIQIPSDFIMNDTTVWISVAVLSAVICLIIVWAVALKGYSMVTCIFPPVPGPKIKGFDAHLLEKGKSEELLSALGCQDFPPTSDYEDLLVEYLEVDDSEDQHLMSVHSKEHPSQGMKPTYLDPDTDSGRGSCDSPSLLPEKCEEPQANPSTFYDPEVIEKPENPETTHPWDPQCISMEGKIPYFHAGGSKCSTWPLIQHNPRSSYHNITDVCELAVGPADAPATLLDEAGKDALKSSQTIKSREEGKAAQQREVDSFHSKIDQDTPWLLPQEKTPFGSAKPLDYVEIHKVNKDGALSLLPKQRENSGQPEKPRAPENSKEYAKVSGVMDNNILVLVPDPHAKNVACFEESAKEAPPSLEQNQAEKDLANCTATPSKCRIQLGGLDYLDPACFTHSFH

T3: mouse PRLR on HEK293 cells (mouse, UniProt Q08501 20-608)
T3 construct: whole, on cells; also called mPRLR; HEK293/mPRLR
T3 sequence (looked up): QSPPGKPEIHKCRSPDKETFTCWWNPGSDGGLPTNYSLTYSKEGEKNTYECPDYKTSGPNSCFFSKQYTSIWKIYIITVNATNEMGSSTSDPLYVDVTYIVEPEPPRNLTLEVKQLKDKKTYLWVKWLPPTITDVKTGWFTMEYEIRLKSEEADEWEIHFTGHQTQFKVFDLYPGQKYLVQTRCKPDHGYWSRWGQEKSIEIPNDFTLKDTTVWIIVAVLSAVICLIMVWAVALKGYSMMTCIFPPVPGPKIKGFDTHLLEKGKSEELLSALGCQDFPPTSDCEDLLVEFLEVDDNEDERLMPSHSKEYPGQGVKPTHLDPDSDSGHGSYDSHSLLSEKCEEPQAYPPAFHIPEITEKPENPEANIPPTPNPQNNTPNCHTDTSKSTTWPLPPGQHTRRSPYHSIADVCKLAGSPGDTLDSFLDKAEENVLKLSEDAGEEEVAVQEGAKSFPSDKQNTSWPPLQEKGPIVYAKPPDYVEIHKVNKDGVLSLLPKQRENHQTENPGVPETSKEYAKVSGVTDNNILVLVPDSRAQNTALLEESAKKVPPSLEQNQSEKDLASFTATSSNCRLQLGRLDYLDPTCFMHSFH

T4: hPRLR.mFc (soluble dimeric human PRLR) (human)
T4 construct: dimeric construct
T4 chain: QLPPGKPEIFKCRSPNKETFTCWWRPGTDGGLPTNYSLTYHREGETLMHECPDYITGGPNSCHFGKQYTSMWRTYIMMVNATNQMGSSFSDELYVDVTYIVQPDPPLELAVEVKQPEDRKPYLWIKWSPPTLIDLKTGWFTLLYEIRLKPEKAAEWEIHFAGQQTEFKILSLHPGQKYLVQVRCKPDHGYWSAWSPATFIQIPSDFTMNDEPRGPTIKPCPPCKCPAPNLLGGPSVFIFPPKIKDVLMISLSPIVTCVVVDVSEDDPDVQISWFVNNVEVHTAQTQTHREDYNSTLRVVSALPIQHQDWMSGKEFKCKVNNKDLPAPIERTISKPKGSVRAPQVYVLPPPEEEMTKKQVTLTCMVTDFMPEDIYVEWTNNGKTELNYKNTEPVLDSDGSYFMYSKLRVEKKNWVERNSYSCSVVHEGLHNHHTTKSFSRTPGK

T5: hPRLR.mmh (soluble monomeric human PRLR) (human)
T5 construct: soluble monomeric construct
T5 chain: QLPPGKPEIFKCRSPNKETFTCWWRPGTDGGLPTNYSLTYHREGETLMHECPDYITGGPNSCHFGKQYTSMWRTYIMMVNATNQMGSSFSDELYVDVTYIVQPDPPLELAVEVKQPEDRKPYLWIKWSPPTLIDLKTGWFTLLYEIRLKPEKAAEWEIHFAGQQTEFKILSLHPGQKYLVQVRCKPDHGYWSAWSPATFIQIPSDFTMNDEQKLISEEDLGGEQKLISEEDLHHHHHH

T6: mfPRLR.mmh (soluble monomeric macaca fascicularis PRLR) (macaca fascicularis)
T6 construct: soluble monomeric construct; also called macaca fascicularis (mf) PRLR.mmh
T6 chain: T5 chain with I76V, A110T, I125M, I158T, T207I

B1: H1H6967N (antibody, human IgG1, V domains shown)
VH: EVQLVESGGDLVHPGRSLRLSCAASGFPFDEYAMHWVRQVPGKGLEWVSGISWSNNNIGYADSVKGRFTISRDNAKNSLYLQMNSLRPEDTAFYYCAKSGIFDSWGQGTLVTVSS
VL: EIVMTQSPATLSVSPGERATLSCRASQSVSRDLAWYQQKPGQAPRLLIHGASTRATGIPARFSGSGSGAEFTLIISSLQSEDFAVYYCQQYNNWPLTFGGGTKVEIK
notes: also called H2M6967N
B2: H1H6774P (antibody, human IgG1, V domains shown)
VH: EVQLVESGGGLAQPGGSLRLSCVASGFTFSTYWMSWVRQAPGKGLDWVGNIKQDGSEQNYVDSVRGRFTISRDNAKNSLFLQMNSLRAEDTGVYYCATLLTKGDYWGQGTLVTVSS
VL: DIQMTQSPSSLSASVGDSVTITCRASQDISNYLDWFQQKPGKAPKSLIYAASILQGGVPSRFSGSGYGTDFTLTISSLQPEDFATYYCRQYKTYPFTFGPGTKVDIK
notes: human IgG1 Fc (H1H)
B3: H1H6792P (antibody, human IgG1, V domains shown)
VH: EVQLVESGGGLVQPGRSLRLSCAASGFTLDDHAVHWVRQAPGKGLEWVSGISWNSVYIDYADSVKGRFTIFRDNAKNSLYLQMNSLRAEDTAFYYCARDIEGARDYWGQGTLVTVSS
VL: DIQMTQSPSSLSASVGDRVTITCRASQGIRNDLGWYQQKPGKAPKRLIYAASSLQSGVPSRFSGSGYGTEFTLTISSLQPEDFAPYYCLQHNSYPLTFGGGTKVEIK
notes: human IgG1 Fc (H1H)
B4: H1H6958N2 (antibody, human IgG1, V domains shown)
VH: QVQLVESGGGVVQPGRSLRLSCGASGFTFRNYGMQWVRQGPGKGLEWVTLISFDGNDKYYADSVKGRFTISRDNSKNTLFLQMNSLRTEDTAVYYCARGGDFDYWGQGTLVTVSS
VL: DIQMTQSPSSLSASVGDRVTITCRASQDIRKDLGWYQQKPGKAPKRLIYAASSLHSGVPSRFSGSGSGTEFTLTISSLQPEDFATYYCLQHNSYPMYTFGQGTKLEIK
notes: also called H2M6958N2
B5: H1H6781P (antibody, human IgG1, V domains shown)
VH: EVQLVESGGDLVQPGESLRLSCTASGFTFNSYEMNWVRQAPGKGLEWVSYISSSGGTKYYVDSVKGRFTISRDNAKKSLYLQMNSLRADDTALYYCARLNGVDVFDIWGQGTMVTVSS
VL: DIQMTQSPSSLSASVGDRVTITCRASQDIFNYLAWFQQKPGKVPELLISAASTLQSGVPSRFSGSGSGTYFTLTISSLQPEDIATYYCQRYNSAPLTFGGGTKVEIK
notes: human IgG1 Fc (H1H)
B6: H1H6783P (antibody, human IgG1, V domains shown)
VH: QVQLQQSGPGLVKPSQTLSLTCAISGDSVSSNTFAWNWIRQSPSRGLEWLGRTYYRSKWYIDYAESVKSRITITPDTSKNQFSLQLNSVTPEDTALYYCAGGYTYAPRGAFDIWGQGTMVTVSS
VL: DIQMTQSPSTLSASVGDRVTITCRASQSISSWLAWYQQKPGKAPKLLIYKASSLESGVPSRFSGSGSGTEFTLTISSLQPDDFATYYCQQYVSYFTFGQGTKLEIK
notes: human IgG1 Fc (H1H)

How the values were obtained:
[1] = target: T1, human prolactin receptor (PRLR) on cells; assay: FACS, HEK293/hPRLR cells; further: test concentration or dose not given here
[2] = target: T2, monkey (macaca fascicularis) PRLR on …; assay: FACS, HEK293/mfPRLR cells; further: test concentration or dose not given here
[3] = target: T3, mouse PRLR on HEK293 cells; assay: FACS, HEK293/mPRLR cells; further: test concentration or dose not given here
[4] = target: T4, hPRLR.mFc (soluble dimeric human PRLR); assay: SPR, 37C, mAb capture
Experimental: (§1) Measurements were conducted on a T200 Biacore instrument. Kinetic association (kₐ) and dissociation (kd) rate constants were determined by processing and fitting the data to a 1:1 binding model using Scrubber 2.0 curve fitting software. Binding dissociation equilibrium constants (KD) and dissociative half-lives (t_{1/2}) were calculated from the kinetic rate constants as: KD (M)=kd/kₐ; and […].

[5] = target: T5, hPRLR.mmh (soluble monomeric human PRLR); assay: SPR, 37C, mAb capture
Experimental: as §1

[6] = target: T6, mfPRLR.mmh (soluble monomeric macaca …); assay: SPR, 37C, mAb capture
Experimental: as §1

[7] = target: T1, human prolactin receptor (PRLR) on cells; assay: FACS, T47D cells (native PRLR); further: test concentration or dose not given here
[8] = target: T1, human prolactin receptor (PRLR) on cells; assay: cell-based or functional assay

FACS Cell Binding (Fold Above Background) [1]	FACS Cell Binding (Fold Above Background) [2]	FACS Cell Binding (Fold Above Background) [3]	T½ [4]	T½ [5]	T½ [6]	FACS Cell Binding (Fold Above Background) [7]	% Internalization relative to Control I (alexa488 intensity in intracellular vesicles at 37 C, T47D cells) [8]	Binder
38 fold above background	28 fold above background	2 fold above background	119 min	12.4 min	7.1 min	41 fold above background	169%	B1
1 fold above background	29 fold above background	1 fold above background	60 min	4 min	3 min	39 fold above background	162%	B2
37 fold above background	28 fold above background	3 fold above background	66 min	5 min	4 min	37 fold above background	156%	B3
35 fold above background	30 fold above background	1 fold above background	83.3 min	8.8 min	8.6 min	37 fold above background	169%	B4
37 fold above background	26 fold above background	1 fold above background	117 min	37 min	43 min	40 fold above background	165%	B5
37 fold above background	27 fold above background	1 fold above background	83 min	7 min	9 min	38 fold above background	161%	B6
